Data published in paper PMC3141245.

Assays:
JBP1 D525A = JBP1 D525A (UniProt Q9U6M1 1-827, D525A); experiment: fluorescence anisotropy
DB-JBP1 D525A = DB-JBP1 D525A (Leishmania tarentolae, UniProt Q9U6M1 382-561, D525A); experiment: SPR
DB-JBP1 D536A = DB-JBP1 D536A (Leishmania tarentolae, UniProt Q9U6M1 382-561, D536A); experiment: SPR
DB-JBP1 K436A = DB-JBP1 K436A (Leishmania tarentolae, UniProt Q9U6M1 382-561, K436A); experiment: fluorescence anisotropy
DB-JBP1 K535A = DB-JBP1 K535A (Leishmania tarentolae, UniProt Q9U6M1 382-561, K535A); experiment: fluorescence anisotropy

B1: VSG T-DNA 14-mer (dsDNA)
DNA 1: GGCAGCTGCAACAA
DNA 2: TTGTTGCAGCTGCC
For B1, the Kd (JBP1 D525A) was 11.7 µM.

B2: VSG J-DNA 14-mer, biotin (dsDNA)
DNA 1: GGCAGCTGCAACAA
DNA 2: TTGTTGCAGCTGCC
modifications: base J replaces T7 of strand 1
B2: no binding (DB-JBP1 D525A); binds (DB-JBP1 D536A).

B3: VSG J-DNA 14-mer (dsDNA)
DNA 1: GGCAGCTGCAACAA
DNA 2: TTGTTGCAGCTGCC
modifications: base J (beta-D-glucosyl-hydroxymethyluracil) replaces T7 of strand 1
B3: binds (DB-JBP1 K436A); binds (DB-JBP1 K535A).
